Source: patent US7109170B2, “Region of factor IXa protease domain that interacts with factor VIIIa and methods therefor” (Saint Louis University, priority 1999, dated 2006)

Biological target: T1, factor VIIIa (Homo sapiens, UniProt P00451)
T1 construct: purchased Dr. Leon Hoyer (American Red Cross, Rockville, Md.)
T1 sequence (P00451 20-759 limits assumed): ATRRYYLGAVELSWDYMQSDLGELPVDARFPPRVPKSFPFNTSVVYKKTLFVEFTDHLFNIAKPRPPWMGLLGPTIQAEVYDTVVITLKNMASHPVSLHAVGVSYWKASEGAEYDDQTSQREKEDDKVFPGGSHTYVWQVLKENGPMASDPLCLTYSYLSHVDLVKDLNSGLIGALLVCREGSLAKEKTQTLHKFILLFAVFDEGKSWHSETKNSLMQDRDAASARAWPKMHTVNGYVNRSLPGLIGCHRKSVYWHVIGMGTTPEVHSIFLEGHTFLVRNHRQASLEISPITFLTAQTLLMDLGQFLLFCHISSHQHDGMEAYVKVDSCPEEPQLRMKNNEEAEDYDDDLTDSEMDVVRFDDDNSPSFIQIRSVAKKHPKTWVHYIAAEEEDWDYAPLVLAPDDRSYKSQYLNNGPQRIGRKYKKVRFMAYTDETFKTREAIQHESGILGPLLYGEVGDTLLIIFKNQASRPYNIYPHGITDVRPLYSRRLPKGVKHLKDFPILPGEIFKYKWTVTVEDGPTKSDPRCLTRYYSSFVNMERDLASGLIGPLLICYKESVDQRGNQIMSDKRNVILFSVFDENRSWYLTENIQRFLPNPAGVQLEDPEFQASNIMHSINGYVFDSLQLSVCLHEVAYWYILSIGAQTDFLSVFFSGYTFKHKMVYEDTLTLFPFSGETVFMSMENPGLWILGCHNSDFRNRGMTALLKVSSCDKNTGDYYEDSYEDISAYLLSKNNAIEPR
T1 sequence (P00451 1668-2351 limits assumed): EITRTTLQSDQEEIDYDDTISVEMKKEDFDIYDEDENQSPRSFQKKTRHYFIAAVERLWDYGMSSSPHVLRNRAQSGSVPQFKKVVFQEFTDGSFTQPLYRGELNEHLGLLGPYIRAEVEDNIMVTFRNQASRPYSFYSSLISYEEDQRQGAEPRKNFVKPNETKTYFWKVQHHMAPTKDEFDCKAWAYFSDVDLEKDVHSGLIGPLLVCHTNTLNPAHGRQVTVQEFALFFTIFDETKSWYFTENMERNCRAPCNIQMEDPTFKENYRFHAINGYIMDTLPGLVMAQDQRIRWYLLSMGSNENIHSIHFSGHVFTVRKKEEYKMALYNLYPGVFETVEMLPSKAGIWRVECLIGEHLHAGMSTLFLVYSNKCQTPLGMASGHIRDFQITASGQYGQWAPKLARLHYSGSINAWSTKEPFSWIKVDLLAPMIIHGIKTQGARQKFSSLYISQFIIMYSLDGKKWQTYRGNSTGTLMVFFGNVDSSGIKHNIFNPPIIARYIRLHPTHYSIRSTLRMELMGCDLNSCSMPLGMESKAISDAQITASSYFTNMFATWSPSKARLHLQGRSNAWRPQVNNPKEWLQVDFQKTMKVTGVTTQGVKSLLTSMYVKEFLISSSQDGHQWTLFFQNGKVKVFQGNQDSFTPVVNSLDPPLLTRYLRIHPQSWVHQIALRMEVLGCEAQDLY
Assay: inhibition of Xa generation by active site-blocked (DEGR) IXa proteins, presence of phospholipid (Kd,app for VIIIa)
Assay type: biochemical
Procedure: Apparent Kds of factor VIIIa binding to various active site-blocked factor IXa proteins were determined from inhibition experiments as detailed in Mathur et al., 1997, supra. […] Reactions were carried out for 2 min and the rates of factor X activation were measured as outlined above.
Various DEGR-ck-inhibited factor IXa proteins were prepared for these experiments as follows. IXNP, IXWT, and each mutant factor IX at 200 μg/ml was activated by factor XIa (2 μg/ml) for 90 min. in TBS, pH 7.4 (0.05 M Tris, 0.15 M NaCl, pH 7.4) containing 5 mM Ca^2+.
Enzymol. 74, 481–508 given below:
[formula] where y is the rate of Xa formation in the presence of a given concentration of DEGR-IXa protein represented by x, a is the maximum rate of Xa formation in the absence of DEGR-IXa, and s is the slope factor. Each point was weighted equally and the data were fitted to Equation 1 using the nonlinear regression analysis program obtained from Erithacus Software (GraFit). […] To obtain the Kd,app values for the interaction of DEGR-IXa proteins with factor VIIIa, the following equation was used, as described by Cheng and Prusoff, 1973, Biochem. Pharmacol. 22, 3099–3108 and further discussed by Craig, 1993, Trends Pharmacol. Sci. 6, 68–71.

**Q.** “IXaV331A: activated factor IX mutant V331A” was tested. Which Kd (active site-blocked (DEGR) IXa proteins, 10 μM phospholipid, read-out: Kd, app for interaction with factor VIIIa, PL-plus system) did it give?
**A.** 0.61 ± 0.08 nM

**Q.** What about the “fold-reduction in affinity for factor VIIIa compared with DEGR-IXaWT” value (presence of phospholipid) of the same substance?
**A.** 11 fold
